{"source": "patent US20240067932A1", "about": "“METHODS AND COMPOSITIONS FOR GENERATING HEMOGENIC ENDOTHELIAL CELLS FROM PLURIPOTENT STEM CELLS” (Trailhead Biosystems Inc., priority 2022, published 2024)", "molecules": {"B1": {"name": "BMP4: BMP pathway agonist (protein, UniProt P12644 293-408, looked up)", "Bone morphogenetic protein 4": "SPKHHSQRARKKNKNCRRHSLYVDFSDVGWNDWIVAPPGYQAFYCHGDCPFPLADHLNSTNHAIVQTLVNSVNSSIPKACCVPTELSAISMLYLDEYDKVVLKNYQEMVVEGCGCR"}}, "key": {"[1]": {"test_system": "early mesoderm progenitors", "assay": "Factor criticality / dynamic profile analysis of gene expression on removal of a finalized effector", "assay_type": "cell-based, human", "set-up": "expression level of GATA2 / expression level of TAL1 / expression level of CD44 / expression level of KDR / expression level of CD34 / expression level of CD31: unit not given here"}, "[2]": {"test_system": "early mesoderm progenitors", "assay": "8-factor HD-DoE experiments optimized for maximum GATA2 expression (qPCR, partial least squares models)", "assay_type": "cell-based, human", "conditions": "fifth model, FIG. 6; factors VPA, SCF, BMP4, EFG, FLT3L, Arginine, Retinoic Acid, VEGF"}, "[3]": {"conditions": "model FIG. 11, named factor removed"}}, "data": [{"molecule": "B1", "values": [{"measurement": "expression level of GATA2", "setting": "[1]; model FIG. 11 (Retinoic Acid, BMP4, VEGF), factor present", "result": 519}, {"measurement": "expression level of CD31", "setting": "[1]; model FIG. 11, factor present", "result": 768}, {"measurement": "expression level of CD34", "setting": "[1]; model FIG. 11, factor present", "result": 3971}, {"measurement": "expression level of FLI1 (Fill [sic])", "setting": "[1]; model FIG. 11, factor present", "result": 3250}, {"measurement": "expression level of KDR", "setting": "[1]; model FIG. 11, factor present", "result": 17667}, {"measurement": "expression level of TAL1", "setting": "[1]; model FIG. 11, factor present", "result": 490}, {"measurement": "expression level of CD31", "setting": "[1]; [3]", "result": 682}, {"measurement": "expression level of CD34", "setting": "[1]; [3]", "result": 3455}, {"measurement": "expression level of FLI1 (Fill [sic])", "setting": "[1]; [3]", "result": 2213}, {"measurement": "expression level of GATA2", "setting": "[1]; [3]", "result": 338}, {"measurement": "expression level of KDR", "setting": "[1]; [3]", "result": 10025}, {"measurement": "expression level of TAL1", "setting": "[1]; [3]", "result": 422}, {"measurement": "factor contribution (maximum expression of GATA2)", "setting": "[2]", "result": 31}]}]}
